These results are taken from patent US20210380703A1 (RIGEL PHARMACEUTICALS, published 2021).

The target in one test is T1, human ACVR2A (human, UniProt P27037 20-135, limits assumed).
T1 construct: also called activin receptor, type II A
Description: ELISA. An outline of the steps:
(§1)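 mAb binding by ELISA; antigens: hu ACVR2A, mu ACVR2A; pos ctrl biotinylated goat anti-hu kappa LC; neg ctrl hu Fc.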

A further test deals with mouse ACVR2A (mouse, UniProt P27038 20-135, limits assumed). Description: ELISA. An outline of the steps:
as §1
(In general: In an ELISA, binding on a coated surface is turned into a signal by an enzyme label.)

In test [1] the target is T2, biotinylated goat anti-human kappa light chain.
T2 construct: positive control of the ELISA
Description: ELISA, positive control. An outline of the steps:
as §1
Also: test concentration or dose not given here.

Sequence of mouse ACVR2A (P27038 20-135 limits assumed): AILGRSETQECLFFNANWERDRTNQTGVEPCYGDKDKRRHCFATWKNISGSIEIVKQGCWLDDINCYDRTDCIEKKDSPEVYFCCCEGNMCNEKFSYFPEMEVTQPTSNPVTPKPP
T1 sequence (P27037 20-135 limits assumed): as the sequence (P27038 20-135 limits assumed) above, with R20K, I73V counted along it

B1: 365_G09 (antibody, V domains shown)
VH: EVQLLESGGGLVQPGGSLRLSCAASGFTFSSYSMNWVRQAPGKGLEWVSGINYNGGYKSYADSVKGRFTISRDNSKNTLYLQMNSLRAEDTAVYYCARGANWHDTHLDYWGQGTLVTVSS
VL: DIQMTQSPSSLSASVGDRVTITCRASQSIITYLNWYQQKPGKAPKLVIYAATSRASGVPSRFSGSGSGTDFTLTISSLQPEDFATYYCQQSYNSPLTFGGGTKVEIK
notes: Group III
On to B1, for which the optical density with human ACVR2A is 2.62 OD; with mouse ACVR2A, 2.93 OD; in test [1] it was 3.67 OD.

B2: 366_E01 (antibody, V domains shown)
VH: EVQLLESGGGLVQPGGSLRLSCAASGFTFDSYGMNWVRQAPGKGLEWVSNINYNGGYKSYADSVKGRFTISRDNSKNTLYLQMNSLRAEDTAVYYCARGANWHDTHLDYWGQGTLVTVSS
VL: DIQMTQSPSSLSASVGDRVTITCRASQSILTYLNWYQQKPGKAPKLLIYAATSRASGVPSRFSGSGSGTDFTLTISSLQPEDFATYYCQQSYSSPLTFGGGTKVEIK
notes: Group III
For B2, the optical density in the test with human ACVR2A is 2.69 OD; with mouse ACVR2A, 2.72 OD; in test [1] it was 3.66 OD.

B3: 365_H08 (antibody, V domains shown)
VH: EVQLLESGGGLVQPGGSLRLSCAASGFTFSSYGMHWVRQAPGKGLEWVASINYNGGYKSYADSVKGRFTISRDNSKNTLYLQMNSLRAEDTAVYYCARAANWHDTALDYWGQGTLVTVSS
VL: not shown
notes: Group I
As to B3, the optical density in the test with human ACVR2A stood at 2.67 OD; in the test with mouse ACVR2A it was 2.61 OD; in test [1] it was 3.59 OD.

B4: 366_D03 (antibody, V domains shown)
VH: EVQLLESGGGLVQPGGSLRLSCAASGFTFDSYGMHWVRQAPGKGLEWVSSINYNGGYTGYADSVKGRFTISRDNSKNTLYLQMNSLRAEDTAVYYCARAANWHDTHLDYWGQGTLVTVSS
VL: DIQMTQSPSSLSASVGDRVTITCRASQSILSYVNWYQQKPGKAPKLLIYAATSRASGVPSRFSGSGSGTDFTLTISSLQPEDFATYYCQQSYDLPLTFGGGTKVEIK
notes: Group I
Turning to B4, the optical density with human ACVR2A was 2.23 OD; with mouse ACVR2A it was 2.38 OD; in test [1], 3.48 OD.

B5: 366_C05 (antibody, V domains shown)
VH: EVQLLESGGGLVQPGGSLRLSCAASGFTFDDYGMHWVRQAPGKGLEWVSSINYNGGYTGYADSVKGRFTISRDNSKNTLYLQMNSLRAEDTAVYYCARAATWHDTHLDYWGQGTLVTVSS
VL: DIQMTQSPSSLSASVGDRVTITCRASQSIISYLNWYQQKPGKAPKLVIYAATSRASGVPSRFSGSGSGTDFTLTISSLQPEDFATYYCQQSYDSPLTFGGGTKVEIK
notes: Group II
For B5, the optical density in the test with human ACVR2A was determined as 2.01 OD; with mouse ACVR2A it was 2.36 OD; in test [1], 3.4 OD.

B6: 365_H07 (antibody, V domains shown)
VH: EVQLLESGGGLVQPGGSLRLSCAASGFTFDSYSMNWVRQAPGKGLEWVSGINYNGGYTSYADSVKGRFTISRDNSKNTLYLQMNSLRAEDTAVYYCARGANWHDTHLDYWGQGTLVTVSS
VL: DIQMTQSPSSLSASVGDRVTITCRASQSISTYVNWYQQKPGKAPKLLIYAATSRHSGVPSRFSGSGSGTDFTLTISSLQPEDFATYYCQQSYENPLTFGGGTKVEIK
notes: Group III
As for B6, the optical density with human ACVR2A worked out at 2.51 OD; with mouse ACVR2A, 2.75 OD; in test [1] it was 3.43 OD.

B7: 366_A02 (antibody, V domains shown)
VH: EVQLLESGGGLVQPGGSLRLSCAASGFTFDSYGMNWVRQAPGKGLEWVASINYNSGYKGYADSVKGRFTISRDNSKNTLYLQMNSLRAEDTAVYYCARAANWHDTHLDYWGQGTLVTVSS
VL: DIQMTQSPSSLSASVGDRVTITCRASQSIVSYVNWYQQKPGKAPKLLIYAATSRASGVPSRFSGSGSGTDFTLTISSLQPEDFATYYCQQSYDLPLTFGGGTKVEIK
notes: Group I
Regarding B7, the optical density with human ACVR2A stood at 2.45 OD; with mouse ACVR2A it was 2.69 OD; in test [1], 3.58 OD.

B8: 366_E07 (antibody, V domains shown)
VH: EVQLLESGGGLVQPGGSLRLSCAASGFTFDSYGMHWVRQAPGKGLEWVAGINYNGGYTSYADSVKGRFTISRDNSKNTLYLQMNSLRAEDTAVYYCARAATWHDTALDYWGQGTLVTVSS
VL: DIQMTQSPSSLSASVGDRVTITCRASQSILTYLNWYQQKPGKAPKLVIYAATSRHSGVPSRFSGSGSGTDFTLTISSLQPEDFATYYCQQSDNSPLTFGGGTKVEIK
notes: Group II
B8: the results for the optical density (with human ACVR2A; in the test with mouse ACVR2A; in test [1]) were 1.68 OD, 1.86 OD and 3.14 OD, respectively.

B9: 366_B09 (antibody, V domains shown)
VH: EVQLLESGGGLVQPGGSLRLSCAASGFTFSDYGMHWVRQAPGKGLEWVSSINYNSGYKSYADSVKGRFTISRDNSKNTLYLQMNSLRAEDTAVYYCARAATWHDTHLDYWGQGTLVTVSS
VL: DIQMTQSPSSLSASVGDRVTITCRASQSILTYLNWYQQKPGKAPKLVIYAATSRHSGVPSRFSGSGSGTDFTLTISSLQPEDFATYYCQQSYDSPLTFGGGTKVEIK
notes: Group II
With B9, the optical density with human ACVR2A is 2.3 OD; with mouse ACVR2A, 2.53 OD; in test [1] it was 3.39 OD.

B10: 366_B07 (antibody, V domains shown)
VH: EVQLLESGGGLVQPGGSLRLSCAASGFTFSDYGMNWVRQAPGKGLEWVSGINYNGGYTSYADSVKGRFTISRDNSKNTLYLQMNSLRAEDTAVYYCARGANWHDTHLDYWGQGTLVTVSS
VL: DIQMTQSPSSLSASVGDRVTITCRASQSIVSYLNWYQQKPGKAPKLVIYATTSRASGVPSRFSGSGSGTDFTLTISSLQPEDFATYYCQQSYNSPLTFGGGTKVEIK
notes: Group III
As for B10, the optical density in the test with human ACVR2A was 1.8 OD; in the test with mouse ACVR2A it was 1.92 OD; in test [1] it was 3.22 OD.

B11: 366_E08 (antibody, V domains shown)
VH: EVQLLESGGGLVQPGGSLRLSCAASGFTFSDYSMNWVRQAPGKGLEWVSNINYNGGYTSYADSVKGRFTISRDNSKNTLYLQMNSLRAEDTAVYYCARGANWHDTHLDYWGQGTLVTVSS
VL: DIQMTQSPSSLSASVGDRVTITCRASQSIVTYLNWYQQKPGKAPKLLIYAATSRHSGVPSRFSGSGSGTDFTLTISSLQPEDFATYYCQQSYSNPLTFGGGTKVEIK
notes: Group III
As for B11, the values for the optical density (in the test with human ACVR2A; in the test with mouse ACVR2A; in test [1]) were 1.97 OD, 2 OD and 3.35 OD, respectively.

B12: 366_A04 (antibody, V domains shown)
VH: EVQLLESGGGLVQPGGSLRLSCAASGFTFSSYGMNWVRQAPGKGLEWVAGINYNGGYTSYADSVKGRFTISRDNSKNTLYLQMNSLRAEDTAVYYCARAANWHDTALDYWGQGTLVTVSS
VL: DIQMTQSPSSLSASVGDRVTITCRASQSILTYLNWYQQKPGKAPKLVIYAATSLASGVPSRFSGSGSGTDFTLTISSLQPEDFATYYCQQSDDSPLTFGGGTKVEIK
notes: Group I
Turning to B12, the optical density in the test with human ACVR2A was 1.82 OD; with mouse ACVR2A, 1.99 OD; in test [1] it was 3.4 OD.

B13: 366_D01 (antibody, V domains shown)
VH: EVQLLESGGGLVQPGGSLRLSCAASGFTFSSYGMHWVRQAPGKGLEWVSSINYNGGYTGYADSVKGRFTISRDNSKNTLYLQMNSLRAEDTAVYYCARAANWHDTHLDYWGQGTLVTVSS
VL: DIQMTQSPSSLSASVGDRVTITCRASQSILTYVNWYQQKPGKAPKLLIYAATSRASGVPSRFSGSGSGTDFTLTISSLQPEDFATYYCQQSYENPLTFGGGTKVEIK
notes: Group I
For B13, the values for the optical density (in the test with human ACVR2A; with mouse ACVR2A; in test [1]) were 2.36 OD, 2.46 OD and 3.48 OD, respectively.
